The data set deals with MS2 coat protein. Kind of data set: apparent KD of MS2 coat protein; designed switch direction (-1 OFF switch, 1 ON switch): -1; higher = weaker reporter binding. The method in brief:
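The apparent KD reported per design is the median over clusters of curve fits to normalised cluster fluorescence. The RNA switches were transcribed on Illumina chips by stalled E. coli RNA polymerase. SNAP-549-labelled MS2 coat protein was titrated from 0.7 or 1.5 nM, doubling up to 3 µM, in Tris-HCl pH 7.5 buffer containing KCl, MgCl2, BSA, DTT, tRNA and Tween-20, with no input, 200 uM small-molecule ligand, or an oligonucleotide input.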

Where [1] appears, read: input ligand: microRNA oligo, concentration not stated.
[2] abbreviates: Eterna round: R95, input ligand: microRNA oligo, concentration not stated.
Setting [3] is: Eterna round: R95, input ligand: FMN 200 uM.
Setting [4] is: Eterna round: R95, input ligand: none.

As for “GUAUGUGCGAGAGGAUAUCGUGUACAAAGUACACGAGAAGGCUUCACAUGAGGAUCACCCAUGUACCGAGGUGAAACACCUUGA [Omei Exc(NG)1 Bv8] (Eterna round: R96, puzzle: Exclusion NG 1)”, the “apparent KD of MS2 coat protein” value came out at 934 nM (input ligand: FMN 200 uM), 173 nM under setting [1] and 270 nM (input ligand: none).
Regarding “GUCACAUGGACAUAGGAUCACAUGAGGAUCACCCAUGUGACUAACAAGCUUUUUGCUCGUCUUAUGUCUAUGUGAAU [Stov1/16-A2] (Eterna round: R97, puzzle: Sensor, turn-off variant 1)”, the “apparent KD of MS2 coat protein” value by setting is: (input ligand: FMN 200 uM) 14 nM; (input ligand: none) 14.3 nM.
For “GUCACAUGGGUAUAGGAUCACAUGAGGAUCACCCAUGUGACUAACAAGCUUUUUGCUCGUCUUAUGUCUAUGUGAAU [Stov1/18-A2] (Eterna round: R97, puzzle: Sensor, turn-off variant 1)”, in that order: 26.2 nM and 32.4 nM.
Regarding “GUCAGACGAGGAUAUAGAUUUGAUAACAUGAGGAUCACCCAUGUGAUCGAUAGAUCAGAUUUAGAAGGUGUCUGAC [E5/8-B3] (Eterna round: R97, puzzle: Exclusion 5)”, the “apparent KD of MS2 coat protein” value was found to be 403 nM (input ligand: FMN 200 uM) and 331 nM (input ligand: none).
Turning to “GUCAGCUCGUCAGGAUAUACAUGCGUGCUUCGGCACGAAUUUAAGAUCACAUGAGGAUCACCCAUGUAGAAGGGACGAGCUGAC [ENG2/3-B1] (Eterna round: R96, puzzle: Exclusion NG 2)”, the “apparent KD of MS2 coat protein” value was 741 nM (input ligand: FMN 200 uM), 515 nM under setting [1] and 534 nM (input ligand: none).
For “GUCAGCUCGUCAGGAUAUACAUGCGUGCUUCGGCACGUAUGAUAGAUCACAUGAGGAUCACCCAUGUAGAAGGGACGAGCUGAU [ENG2/4-B2] (Eterna round: R96, puzzle: Exclusion NG 2)”, in that order: 16.6 nM, 10 nM and 14.4 nM.
Regarding “GUCAGCUCGUGAGGAUAUACAUGAGGAUCACCCAUGUGAUCAAUAGCAGCUUCGGCUGCAUACAUGUAGAAGGCACGAGCUGAU [ENG2/6-A2] (Eterna round: R96, puzzle: Exclusion NG 2)”, the “apparent KD of MS2 coat protein” value under setting [1] turned out to be 27.5 nM.
Regarding “GUCAGCUCGUGAGGAUAUACAUGCGUGCUUCGGCACGAAUUUAAGAUCACAUGAGGAUCACCCAUGUAGAAGGUACGAGCUGAC [ENG2/3-C1] (Eterna round: R96, puzzle: Exclusion NG 2)”, the “apparent KD of MS2 coat protein” value (input ligand: FMN 200 uM) amounted to 632 nM, the “apparent KD of MS2 coat protein” value under setting [1] came to 646 nM and the “apparent KD of MS2 coat protein” value (input ligand: none) is 387 nM.
Consider “GUCAGCUCGUGAGGAUAUGAACAUGAGGAUCACCCAUGUAAGAUCAAGCUGCUUCGGCAGCAAGUUCAGAAGGUACGAGCUGAU [ENG2/10-C2] (Eterna round: R96, puzzle: Exclusion NG 2)”, for which the “apparent KD of MS2 coat protein” value was determined as 243 nM (input ligand: FMN 200 uM), 93.3 nM under setting [1] and 122 nM (input ligand: none).
Turning to “GUCAGCUCGUGAGGAUAUGCACAUGAGGAUCACCCAUGUAAGAUCAAGCUGCUUCGGCAGCAAGUGCAGAAGGCACGAGCUGAU [ENG2/9-A3] (Eterna round: R96, puzzle: Exclusion NG 2)”, the “apparent KD of MS2 coat protein” value (input ligand: FMN 200 uM) stood at 148 nM, the “apparent KD of MS2 coat protein” value under setting [1] was 179 nM and the “apparent KD of MS2 coat protein” value (input ligand: none) stood at 210 nM.
“GUCAUACAUGAGGAUCACCCAUGUAAGGAUAUGCUAGCGGUCGGCUGACUGACUGCUAGCAGAAGGUACAUGAU (puzzle: Exclusion 1)”: under setting [2], the “apparent KD of MS2 coat protein” value was 61.5 nM.
As to “GUCAUGUCAGGAUAUGCUUAUGAUGGGUGCUCAGACAUGAUGCAGAAGGGACAUGAGGAUCACCCAUGUACUGA [EX4 #15] (Eterna round: R97, puzzle: Exclusion 4)”, the “apparent KD of MS2 coat protein” value is, setting by setting: (input ligand: FMN 200 uM) 84.8 nM; (input ligand: none) 68.3 nM.
For “GUCCUACAUGAGGAUCACCCAUGUAAGGAUAUGCUAGCGGUCGGAAGACUGACUGCUAGCAGAAGGUACAUGAU [Mat - Mod of JL D79] (puzzle: Exclusion 1)”, the “apparent KD of MS2 coat protein” value under setting [2] is 13.9 nM.
In the case of “GUCCUCAUGACAUGAGGAUCACCCAUGUAUUAUUUGUUAACUGAGGAUAUACUCUUAUUUUUUAUGUAGAAGGCAGAUUUGUUC [JR_ExcNG3_Sub021] (Eterna round: R96, puzzle: Exclusion NG 3)”, the “apparent KD of MS2 coat protein” value runs as follows: (input ligand: FMN 200 uM) 43.1 nM; under setting [1], 27.7 nM; (input ligand: none) 31.2 nM.
In the case of “GUCCUGGACUAUCACAAGCACAUGAGGAUCACCCAUGUCAUGGGUAGAUCCAUAAAUAAAGAUACUGCUCGUCUUAU [Cac sensor turnoff var1 sub5] (Eterna round: R97, puzzle: Sensor, turn-off variant 1)”, the “apparent KD of MS2 coat protein” value (input ligand: FMN 200 uM) was 177 nM and the “apparent KD of MS2 coat protein” value (input ligand: none) was determined as 303 nM.
In the case of “GUCCUGGUAGGAUAUGAGGUUCACGACAUGAGGAUCACCCAUGUGGCCGUGUCUCAUACUUCAGAAGGACCGACAG [Eternabot (L2) Solution 5] (Eterna round: R97, puzzle: Exclusion 5)”, the “apparent KD of MS2 coat protein” value worked out at 16.1 nM (input ligand: FMN 200 uM) and 15.7 nM (input ligand: none).
In the case of “GUCGCUUUUUGUUUGUUUUACAUGAGGAUCACCCAUGUACGUUGGUUACAAUAAAGUUCCGUGGCGGAUCAAUCUGA [Eternabot (L1) Solution 12] (Eterna round: R97, puzzle: Sensor, turn-off variant 1)”, the “apparent KD of MS2 coat protein” value by setting is: (input ligand: FMN 200 uM) 24.9 nM; (input ligand: none) 28.2 nM.
In the case of “GUCGGACAUGAGGAUCACCCAUGUGAGGAUAUCCUUUAGAGCUAUUAGUAGAUGCUUAGGAGAAGGCACUAGGG [Eternabot (L2) Solution 17] (Eterna round: R97, puzzle: Exclusion 1)”, the “apparent KD of MS2 coat protein” value turned out to be 93.9 nM (input ligand: FMN 200 uM) and 314 nM (input ligand: none).
Consider “GUCGUGCGGCUUUGCUGUGCGAGUACAUGAGGAUCACCCAUGUAGGAUAUGGUACGCUUUGCGUGCCAGAAGGGCGUGCGUUGG [salish99_ExNG3_r04_007] (Eterna round: R96, puzzle: Exclusion NG 3)”, for which the “apparent KD of MS2 coat protein” value (input ligand: FMN 200 uM) came to 38 nM, the “apparent KD of MS2 coat protein” value under setting [1] worked out at 28.6 nM and the “apparent KD of MS2 coat protein” value (input ligand: none) turned out to be 35.4 nM.
On to “GUCGUGUUAGGAUAUUGGCCUUUUAGAUGCACUAAGUGAGACGAGAAGGGACAUGAGGAUCACCCAUGUAAUAA [Eternabot (L1) Solution 69] (Eterna round: R97, puzzle: Exclusion 4)”, for which the “apparent KD of MS2 coat protein” value (input ligand: FMN 200 uM) is 47.4 nM and the “apparent KD of MS2 coat protein” value (input ligand: none) was 36.4 nM.
In the case of “GUGAAACAUGAGGAUCACCCAUGUGAGGAUAUGAUUUAGUAAUGGAGACAGUACAUAUUCAGAAGGCACAAUGG [Mat - Mod of JL D76] (puzzle: Exclusion 1)”, the “apparent KD of MS2 coat protein” value runs as follows: under setting [3], 55.2 nM; under setting [2], 150 nM; under setting [4], 182 nM.
As to “GUGAAGUAAGGAUAUACAUGAGGAUCACCCAUGUGGAGGAAGGUGAUGGGAGUAGGUAGUAGAAGGUACGAGGA [JR_Exclu3_Sub064] (Eterna round: R96, puzzle: Exclusion 3)”, the “apparent KD of MS2 coat protein” value amounted to 304 nM (input ligand: FMN 200 uM), 134 nM under setting [1] and 207 nM (input ligand: none).
As for “GUGAAGUAAGGAUAUACAUGAGGAUCACCCAUGUGGAGGAAGGUGAUGGGAGUAGGUAGUAGAAGGUACGAGGA [JR_Exclu3_Sub064] (puzzle: Exclusion 3)”, the “apparent KD of MS2 coat protein” value came out at 115 nM under setting [3], 159 nM under setting [2] and 201 nM under setting [4].
As for “GUGAAGUGAGGAUAUACGAGAGAGGCUGAACCUGGAGAGAAGUAGAAGGCACAUGAGGAUCACCCAUGUUAGGA [JR_Exclu4_Sub021] (puzzle: Exclusion 4)”, the “apparent KD of MS2 coat protein” value under setting [2] worked out at 38 nM.
For the sequence “GUGAGACAUGAGGAUCACCCAUGUGAGGAUAUCCGAAGGACCAAAUUAAGAAUAGAAGGGAGAAGGCACAUAAA [Exclusion 1 V6] (puzzle: Exclusion 1)”, the “apparent KD of MS2 coat protein” value reads like this: under setting [3], 128 nM; under setting [2], 68.4 nM; under setting [4], 157 nM.
With “GUGAGCAGACGGAGAUCCUACAUGAGGAUCACCCAUGUCUCACUAGCUUUUUGCUCGUCUUAUCCUCCUCUGUUCAC [Elimod 24 - Jieux - Sensor, turn-off variant 1] (Eterna round: R97, puzzle: Sensor, turn-off variant 1)”, the “apparent KD of MS2 coat protein” value runs as follows: (input ligand: FMN 200 uM) 21.8 nM; (input ligand: none) 21.6 nM.
Regarding “GUGAUCUAUCAUGUAAUAAACAUGAGGAUCACCCAUGUAGACAAGUUUUUUGCUCGUCUUAUAAUAAGAUAGAUCAC [Antenna 15 - Jieux - Sensor, turn-off variant 1] (Eterna round: R97, puzzle: Sensor, turn-off variant 1)”, the “apparent KD of MS2 coat protein” value by setting is: (input ligand: FMN 200 uM) 16.3 nM; (input ligand: none) 15.9 nM.
Turning to “GUGCAAUGAGGAUAUACGUUGGUGAACAUCUGUGUGCUCCUACAUGAGGAUCACCCAUGUAGAAGGCAUGUCAC [LRO-Excl2-18] (Eterna round: R96, puzzle: Exclusion 2)”, the “apparent KD of MS2 coat protein” value is, setting by setting: (input ligand: FMN 200 uM) 18.3 nM; under setting [1], 10.8 nM; (input ligand: none) 14.1 nM.
Take “GUGCAAUGAGGAUAUACGUUGGUGAACAUCUGUGUGCUCCUACAUGAGGAUCACCCAUGUAGAAGGCAUGUCAC [LRO-Excl2-18] (puzzle: Exclusion 2)”: the “apparent KD of MS2 coat protein” value under setting [2] was found to be 11.3 nM.
“GUGCCGCGAGGAUAUACAGACGGGUCCAGUACGUGUCUGGGACUUGAGGAUCACCCAAGUAGAAGGCGUCUCAG [salish99_ex2_r4_613] (Eterna round: R97, puzzle: Exclusion 2)”: the “apparent KD of MS2 coat protein” value (input ligand: FMN 200 uM) is 39.9 nM and the “apparent KD of MS2 coat protein” value (input ligand: none) was found to be 44.6 nM.

The values are drawn from the supplement of paper PMC9170038.
